What all share (conditions): protein: recombinant; tags: His6-SUMO removed by Ulp1
Data set [1] deals with hYBX2 CSD 85-165 (crystal) (human, UniProt Q9Y2T7 85-165, I92T;Q93K). In words: crystal structure; ITC: 25 C, iTC200, buffer not stated (protein stock 10 mM Tris-HCl pH 8.0, 100 mM NaCl, 1 mM DTT); EMSA: 50 mM Tris-HCl pH 7.5, 100 mM NaCl, 0.4 mM EDTA, 0.1% NP-40, 1 mM DTT, 50% glycerol, BSA, on ice, 0.2% glutaraldehyde; pull-down: 100 mM NaCl, 10 mM Tris-HCl pH 7.6, 2 mM EDTA, 0.5% NP-40, 4 C. (Mobility shift assays separate free from complexed probe on a gel.)

For data set [2], the target named is hYBX2 CSD 85-177 (crystal) (human, UniProt Q9Y2T7 85-177, I92T;Q93K). Described as above.
In data set [3] the target is hYBX2 CSD W100F/Y173F (ITC) (human, UniProt Q9Y2T7 85-177, I92T;Q93K;W100F;Y173F). In words: ITC; ITC: 25 C, iTC200, buffer not stated (protein stock 10 mM Tris-HCl pH 8.0, 100 mM NaCl, 1 mM DTT); EMSA: 50 mM Tris-HCl pH 7.5, 100 mM NaCl, 0.4 mM EDTA, 0.1% NP-40, 1 mM DTT, 50% glycerol, BSA, on ice, 0.2% glutaraldehyde; pull-down: 100 mM NaCl, 10 mM Tris-HCl pH 7.6, 2 mM EDTA, 0.5% NP-40, 4 C.

For data set [4], the target named is hYBX2 CSD W100F (ITC) (human, UniProt Q9Y2T7 85-177, I92T;Q93K;W100F). Described as above.
In data set [5] the target is hYBX2 CSD I92T/Q93K (called wild-type in ITC) (human, UniProt Q9Y2T7 85-177, I92T;Q93K). Described as above.
Chain of hYBX2 CSD I92T/Q93K (called wild-type in ITC) (Q9Y2T7 85-177 I92T/Q93K): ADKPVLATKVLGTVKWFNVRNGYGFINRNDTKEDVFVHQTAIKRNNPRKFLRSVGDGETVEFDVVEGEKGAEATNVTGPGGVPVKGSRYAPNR

Chain of hYBX2 CSD 85-177 (crystal) (Q9Y2T7 85-177 I92T/Q93K): as above
Chain of hYBX2 CSD W100F (ITC) (Q9Y2T7 85-177 I92T/Q93K/W100F): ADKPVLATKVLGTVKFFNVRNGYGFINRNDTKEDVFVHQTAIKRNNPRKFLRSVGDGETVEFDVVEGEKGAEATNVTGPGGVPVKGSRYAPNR
Chain of hYBX2 CSD W100F/Y173F (ITC) (Q9Y2T7 85-177 I92T/Q93K/W100F/Y173F): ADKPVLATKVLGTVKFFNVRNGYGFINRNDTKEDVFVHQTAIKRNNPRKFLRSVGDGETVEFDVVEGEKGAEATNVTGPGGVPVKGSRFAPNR
Chain of hYBX2 CSD 85-165 (crystal) (Q9Y2T7 85-165 I92T/Q93K): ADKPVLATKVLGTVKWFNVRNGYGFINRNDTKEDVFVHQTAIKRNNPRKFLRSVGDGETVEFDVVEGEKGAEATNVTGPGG

In the case of UCAUCU (ssRNA, m5C at position 5) [UCAU(m5C)U], the binding result in data set [1] and in data set [2] was “binds” throughout.

Turning to UCAUCUCU (ssRNA, m5C at position 5) [ITC m5C RNA UCAU(m5C)UCU], the values for the Kd in data set [3], in data set [4] and in data set [5] were 6.33 ± 0.52 µM, 2.34 ± 0.09 µM and 0.22 ± 0.02 µM, respectively.

For the molecule UCAUCUCU (ssRNA) [ITC unme-C RNA], the results for the Kd in data set [3], in data set [4] and in data set [5] were 7.26 ± 0.24 µM, 2.59 ± 0.12 µM and 0.71 ± 0.06 µM, respectively.

For GUCUC (ssRNA, m5C at positions 3 and 5) [GU(m5C)U(m5C)], the binding result in data set [2] is given as “binds”.

Regarding UCAUCUU (ssRNA, m5C at position 5) [UCAU(m5C)UU], the binding result in data set [2] is “binds”.

For orientation: Kd means the free concentration of one partner at which half of the binding sites on the other are occupied at equilibrium, for simple one-to-one binding.

The values above are taken from publication PMC11197489, “RNA 5-methylcytosine regulates YBX2-dependent liquid-liquid phase separation”.
